# Experimental data published in paper PMC8928417.
# Molecular target: biotinylated histone H3 peptide trimethylated at lysine 27, H3K27me3 (21–44) (UniProt P68431)
# Assay: peptide or protein array
substance,measurement,value
"polycomb-based transcription factor (PcTF), monovalent (from UniProt Q9HC52 1-62) (designed binder)",Kd,5.14 to 8.95 µM
